Experimental findings from patent publication US20130053541A1, “METHODS FOR DISCOVERING MOLECULES THAT BIND TO PROTEINS” (LYNNTECH, INC., priority 2011, published 2013) are described below.

Where no end group is shown, it is not given here.

The target of one experiment is T1, native human ESRRG protein (Estrogen-receptor related receptor gamma) (human, UniProt P62508 229-458, limits assumed).
T1 construct: the screened protein is called 'native human ESRRG protein'; also called ESSRG; ERRγ
T1 sequence (looked up): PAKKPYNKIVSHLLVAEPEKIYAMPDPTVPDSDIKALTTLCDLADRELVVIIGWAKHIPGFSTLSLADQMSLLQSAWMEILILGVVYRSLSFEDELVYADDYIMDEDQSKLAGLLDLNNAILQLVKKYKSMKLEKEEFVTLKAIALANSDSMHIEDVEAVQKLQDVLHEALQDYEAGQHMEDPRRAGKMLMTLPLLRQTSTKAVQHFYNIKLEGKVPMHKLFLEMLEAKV
As to the kind of experiment: peptide microarray, Iteration 1; bound ESRRG detected with fluorescent anti-ESRRG mAb. On the procedure: (§1) Screening was carried out typically by hybridization of the protein (1 μg/mL) against the array for 1 h at 4° C.; detection of bound protein was carried out using a fluorescently labeled anti-ESRRG mAb. (Direct labeling of ESRRG and alternative detection strategies are equally valid).
Daughter candidate ligands and their new Tier 3 and/or Tier 1 based combinations were synthesized in situ on an addressable peptide microarray and screened against native human ESRRG protein in order to determine sequences that bind to this protein. Bound protein was detected by a fluorescently labeled anti-ESRRG mAb. […] Excess (100×) competing biological matrices (human serum, HSA/BSA or bacterial protein extract) were used as backgrounds to select for specific ligands to the protein. Other competing proteins can be added to background for specificity selection and directed evolution of ligands.
Take Ac-IKQNYNNS: the “Sample B (Probe) Signal” value is 740 fluorescence intensity units and the “log2 (Sample B/Sample A)” value is 4.97.
The corresponding values for Ac-ANNSLLLH are 1320 fluorescence intensity units and 6.51.
The corresponding values for Ac-ANNLQLLH are 1540 fluorescence intensity units and 5.03.
For Ac-ANNLKLLH the same measures were 1670 fluorescence intensity units and 4.88.
On to Ac-ANNLSLLH, for which the “Sample B (Probe) Signal” value is 1220 fluorescence intensity units and the “log2 (Sample B/Sample A)” value amounted to 5.82.
The corresponding values for Ac-ANNLWLLH are 1610 fluorescence intensity units and 5.26.
For Ac-ANNSKLLH the same measures were 1010 fluorescence intensity units and 5.42.
Regarding Ac-ANNIQLLH, the “Sample B (Probe) Signal” value was 806 fluorescence intensity units and the “log2 (Sample B/Sample A)” value turned out to be 8.57.
The corresponding values for Ac-ANNILLLH are 1090 fluorescence intensity units and 6.34.
The corresponding values for Ac-ANNIWLLH are 1010 fluorescence intensity units and 5.05.
For Ac-ANNFLLLH the same measures were 1620 fluorescence intensity units and 5.13.
For Ac-LHLRYSQT, the “Sample B (Probe) Signal” value is 961 fluorescence intensity units and the “log2 (Sample B/Sample A)” value came out at 4.86.
For Ac-NSLLQHLL the same measures were 9740 fluorescence intensity units and 12.
For Ac-NSLRQHLL the same measures were 3240 fluorescence intensity units and 6.08.
For Ac-NSLRSHLL the same measures were 1670 fluorescence intensity units and 6.34.

The target in another experiment is T1, native human ESRRG protein …. As to the kind of experiment: peptide microarray, Iteration 2; bound ESRRG detected with fluorescent anti-ESRRG mAb. On the procedure: as §1
Iterative sequence expansion and arraying of 10 highest binding ligands to ESRRG from Iteration 1 was carried out and the new peptide sequences were synthesized on an array and screened against the protein, as described above. In this step, the central 2 amino acids (core) in peptide sequences were maintained unchanged while outlying amino acids (2, 3, 6, and 7) were permuted (using Tier 1 and Tier 3 substitutions) in a ‘cipher’ or ‘combination’ lock approach.
As to Ac-RLLHYGSY, the “Sample B (Probe) Signal” value is 1200 fluorescence intensity units and the “log2 (Sample B/Sample A)” value amounted to 2.05.
Turning to Ac-LILLQQLD, the “Sample B (Probe) Signal” value was 1250 fluorescence intensity units and the “log2 (Sample B/Sample A)” value was determined as 2.82.
In the case of Ac-PGKGHFPI, the “Sample B (Probe) Signal” value is 998 fluorescence intensity units and the “log2 (Sample B/Sample A)” value is 1.94.
The corresponding values for Ac-GKSYPRHR are 3050 fluorescence intensity units and 2.46.
For Ac-LFKLKQND the same measures were 1860 fluorescence intensity units and 2.34.
For Ac-PWKLKQDP, the “Sample B (Probe) Signal” value is 1340 fluorescence intensity units and the “log2 (Sample B/Sample A)” value was determined as 2.76.
For Ac-YFLLQQGP the same measures were 794 fluorescence intensity units and 1.97.
The corresponding values for Ac-HNSYPRNE are 802 fluorescence intensity units and 2.48.
For Ac-FVNFSLGI the same measures were 900 fluorescence intensity units and 1.92.
As for Ac-AHNYLLEH, the “Sample B (Probe) Signal” value is 619 fluorescence intensity units and the “log2 (Sample B/Sample A)” value amounted to 2.42.
As to Ac-PFKLKQGN, the “Sample B (Probe) Signal” value is 6980 fluorescence intensity units and the “log2 (Sample B/Sample A)” value was 2.2.
Turning to Ac-WLLLKHGL, the “Sample B (Probe) Signal” value was 895 fluorescence intensity units and the “log2 (Sample B/Sample A)” value worked out at 2.01.
For Ac-AFNMYLDE the same measures were 440 fluorescence intensity units and 1.93.
The corresponding values for Ac-HNNYLLNN are 964 fluorescence intensity units and 2.34.
The corresponding values for Ac-DRSYPRHT are 271 fluorescence intensity units and 1.98.
For Ac-HFKLKQGG, the “Sample B (Probe) Signal” value is 3110 fluorescence intensity units and the “log2 (Sample B/Sample A)” value amounted to 2.28.
The corresponding values for Ac-YHNYLLHP are 1310 fluorescence intensity units and 2.45.
The corresponding values for Ac-FWNMYLNP are 775 fluorescence intensity units and 2.29.
For Ac-FFNFSLPA the same measures were 1040 fluorescence intensity units and 2.66.
As to Ac-NNSYPRHR, the “Sample B (Probe) Signal” value was 3420 fluorescence intensity units and the “log2 (Sample B/Sample A)” value stood at 2.23.
The corresponding values for Ac-IFLLQQDN are 1010 fluorescence intensity units and 2.08.
For Ac-WGKLKQGE the same measures were 1230 fluorescence intensity units and 2.56.
For Ac-HRSYPRVY the same measures were 2450 fluorescence intensity units and 2.31.
With Ac-ALNFSLNW, the “Sample B (Probe) Signal” value was 662 fluorescence intensity units and the “log2 (Sample B/Sample A)” value stood at 2.12.
Regarding Ac-EESYPRDK, the “Sample B (Probe) Signal” value was 554 fluorescence intensity units and the “log2 (Sample B/Sample A)” value was determined as 2.19.
The corresponding values for Ac-RRSYPRGR are 1660 fluorescence intensity units and 1.9.
Take Ac-MYKLKQDN: the “Sample B (Probe) Signal” value was 746 fluorescence intensity units and the “log2 (Sample B/Sample A)” value turned out to be 2.02.
For Ac-WRSYPRRA the same measures were 2610 fluorescence intensity units and 2.07.
For Ac-HNNFSLEP the same measures were 441 fluorescence intensity units and 2.03.
